We go through 1 substance from PMC6220479.

Test [1] concerns the target TIM-3 expressed on activated human T cells (human (endogenous in activated T cells)) (UniProt Q8TDQ0).
Test [2] shares this target. Description: Scatchard analysis; on activated human T cells.
Test [3] shares this target. Kind of test: flow cytometry on cells; FACS on activated human T cells.

Sequence of UniProt Q8TDQ0 (Q8TDQ0 22-301): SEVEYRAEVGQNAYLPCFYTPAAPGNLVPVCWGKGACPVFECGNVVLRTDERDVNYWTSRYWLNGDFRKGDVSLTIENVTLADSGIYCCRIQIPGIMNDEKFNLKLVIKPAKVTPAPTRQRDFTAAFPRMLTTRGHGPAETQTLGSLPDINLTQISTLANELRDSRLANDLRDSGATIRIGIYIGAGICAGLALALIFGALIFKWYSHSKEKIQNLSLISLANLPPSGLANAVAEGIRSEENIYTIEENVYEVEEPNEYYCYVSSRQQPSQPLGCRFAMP

For “BMS-986258, fully human immunoglobulin (Ig)G1 anti-TIM-3 monoclonal antibody”, the EC50 in a human tumor TIL assay (IFN-gamma; TIL co-cultured with irradiated CHO-OKT3 cells) in test [1] stood at 1.2 nM. The Kd (as a rule, the constant that tells how readily two partners part at equilibrium) in test [2] was found to be 0.16 nM. The half-maximal effective concentration (EC50) (in general, the concentration that produces a half-maximal response) in test [3] amounted to 0.1 nM.
